From US20230295281A1

Tests used:
[1] = biological target: oxidized LDL (oxidized low-density lipoprotein) (UniProt P04114); test: competition ELISA on coated oxLDL; wells preincubated with Pentaglobin; competitor: IgA autoantibodies of COVID-19 sera
[2] = biological target: oxidized LDL (oxidized low-density lipoprotein) (UniProt P04114); test: competition ELISA on coated oxLDL; wells preincubated with Pentaglobin; competitor: IgG autoantibodies of COVID-19 sera

Pentaglobin (human polyclonal immunoglobulin infusion preparation enriched for IgM and IgA)
percent inhibition of autoantibody binding to oxLDL [1]: > 20%
percent inhibition of autoantibody binding to oxLDL [2]: > 20%
